Results: patent US20140271458A1 (AbbVie / Abbott, published 2014)

Experiments:
Recombinant Human IL-17 [1] = molecular target: T1, Recombinant Human IL-17 (human, UniProt Q16552 20-155, limits assumed); experiment: cell-based or functional assay
T1 sequence (looked up): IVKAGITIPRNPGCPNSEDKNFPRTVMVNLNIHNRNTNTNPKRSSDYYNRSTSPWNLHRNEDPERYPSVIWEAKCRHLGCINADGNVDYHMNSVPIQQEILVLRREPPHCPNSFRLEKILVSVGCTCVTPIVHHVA

Recombinant Human IL-17 [2] = molecular target: T1, Recombinant Human IL-17; experiment: SPR, Biacore T200, antibody captured, antigen 0.8-100 nM, 25 C
Method: (§1) The BIACORE assay (GE, Healthcare Piscataway, N.J.) determined the affinity of antibodies or DVD-Ig proteins with kinetic measurements of on-rate and off-rate constants. Binding of antibodies or DVD-Ig proteins to a target antigen (for example, a purified recombinant target antigen) was determined by surface plasmon resonance-based measurements with a Biacore T200 using running HBS-EP+buffer from GE Healthcare at 25° C. AN chemicals were obtained from GE Healthcare unless otherwise described. For example, approximately 5000 RU of goat anti-mouse IgG, (Fcγ), fragment specific polyclonal antibody (Pierce Biotechnology Inc, Rockford, Ill.) diluted in 10 mM sodium acetate (pH 4.5) was directly immobilized across a CM5 research grade biosensor chip using a standard amine coupling kit according to manufacturer's instructions. Unreacted moieties on the biosensor surface were blocked with ethanolamine. Modified carboxymethyl dextran surface in flowcell 1 was used as a reference surface. Rate constants were derived by making kinetic binding measurements at different antigen concentrations ranging from 0.8-100 nM. Binding was recorded as a function of time and kinetic rate constants were calculated. In this assay, association rate was evaluated for 5 minutes and dissociation was monitored for 10 minutes. For kinetic screening analysis, rate equations derived from the 1:1 binding model were fitted simultaneously to association and dissociation phases of all injections (using global fit analysis with Rmax fit locally to account for capture variations) with the use of Biaevaluation software. Purified antibodies or DVD-Ig proteins were diluted in HEPES-buffered saline for capture across goat anti-mouse IgG specific reaction surfaces. Antibodies or DVD-Ig proteins to be captured as a ligand were injected over reaction matrices at a flow rate of 5 μl/minute. The association and dissociation rate constants, kₒₙ (M⁻¹s⁻¹) and koff (s⁻¹) were determined under a continuous flow rate of 50 μl/minute. Rate constants were derived by making kinetic binding measurements at different antigen concentrations ranging from 0.8-100 nM. Binding was recorded as a function of time and kinetic rate constants were calculated. In this assay, association rate was evaluated for 5 minutes and dissociation was monitored for 10 minutes.

Recombinant Human IL-1b [3] = molecular target: T2, Recombinant Human IL-1b (human, UniProt P01584 117-269); experiment: cell-based or functional assay
Recombinant Human IL-1b [4] = molecular target: T2, Recombinant Human IL-1b; experiment: SPR, Biacore T200, antibody captured, antigen 0.8-100 nM, 25 C
Method: as §1

Recombinant Human IL-1b [5] = molecular target: T2, Recombinant Human IL-1b; experiment: SPR, Biacore T200, DVD-Ig captured, antigen 0.8-100 nM, 25 C
Method: as §1

Recombinant Human IL-17 [6] = molecular target: T1, Recombinant Human IL-17; experiment: as above
Method: as §1

B1: AB273 (antibody, V domains shown)
VH: EVQLVQSGAEVKKPGSSVKVSCKASGYTFTDYEIHWVRQAPGQGLEWMGVNDPESGGTFYNQKFDGRVTLTADESTSTAYMELSSLRSEDTAVYYCTRYSKWDSFDGMDYWGQGTTVTVSS
VL: DIQMTQSPSSLSASVGDRVTITCRASSGIISYIDWFQQKPGKAPKRLIYATFDLASGVPSRFSGSGSGTDYTLTISSLQPEDFATYYCRQVGSYPETFGQGTKLEIKR
notes: Parent anti-IL-17 antibody; also called AB273VH
C-Terminal VD IL17 Neutralization Assay (IC50 nM) (Recombinant Human IL-17 [1]): 0.031 nM | Kd (Recombinant Human IL-17 [2]): 4.6 pM | koff (Recombinant Human IL-17 [2]): 1.3e-05 s⁻¹ | kon (Recombinant Human IL-17 [2]): 2.7e+06 M⁻¹ s⁻¹

B2: AB270 (antibody, V domains shown)
VH: EVQLQESGPGLVKPSETLSLTCTVSGFSLSDYGVSWIRQPPGKGLEWLGLIWGGGDTYYNSPLKSRLTISKDNSKSQVSLKLSSVTAADTAVYYCAKQRTLWGYDLYGMDYWGQGTLVTVSS
VL: DTQVTQSPSSLSASVGDRVTITCITSTDIDVDMNWYQQKPGKPPKLLISQGNTLRPGVPSRFSSSGSGTDFTFTISSLQPEDFATYYCLQSDNLPLTFGQGTKLEIKR
notes: Parent anti-IL-1β antibody; also called AB270VH
N-Terminal VD IL-1β Neutralization Assay (IC50 nM) (Recombinant Human IL-1b [3]): 0.239 nM | Kd (Recombinant Human IL-1b [4]): 80 pM | koff (Recombinant Human IL-1b [4]): 0.00053 s⁻¹ | kon (Recombinant Human IL-1b [4]): 6.6e+06 M⁻¹ s⁻¹

B3: AB271 (antibody, V domains shown)
VH: EVQLQESGPGLVKPSETLSLTCTVSGFSLSDYGVSWIRQPPGKGLEWLGLIWGGGDTYYNSPLKSRLTISKDNSKSQVSLKLSSVTAADTAVYYCAKQRTLWGYDLYGMDYWGQGTLVTVSS
VL: DTVVTQSPAFLSVTPGEKVTITCITSTDIDVDMNWYQQKPDQPPKLLISQGNTLRPGVPSRFSSSGSGTDFTFTISSLEAEDAATYYCLQSDNLPLTFGQGTKLEIKR
notes: Parent anti-IL-1β antibody; also called AB271VH
N-Terminal VD IL-1β Neutralization Assay (IC50 nM) (Recombinant Human IL-1b [3]): 0.301 nM | Kd (Recombinant Human IL-1b [4]): 110 pM | koff (Recombinant Human IL-1b [4]): 0.00051 s⁻¹ | kon (Recombinant Human IL-1b [4]): 4.6e+06 M⁻¹ s⁻¹

B4: AB272 (antibody, V domains shown)
VH: EVQLVESGGGLVQPGGSLRLSCAVSGFTLSDYGVSWIRQAPGKGLEWLGLIWGGGDTYYNSPLKSRLTISKDNSKSTVYLQMNSLRAEDTAVYYCAKQRTLWGYDLYGMDYWGQGTLVTVSS
VL: ETTVTQSPSSLSASVGDRVTITCITSTDIDVDMNWYQQKPGKPPKLLISQGNTLRPGVPSRFSSSGSGTDFTFTISSLQPEDFATYYCLQSDNLPLTFGQGTKLEIKR
notes: Parent anti-IL-1β antibody; also called AB272VH
N-Terminal VD IL-1β Neutralization Assay (IC50 nM) (Recombinant Human IL-1b [3]): 0.424 nM | Kd (Recombinant Human IL-1b [4]): 140 pM | koff (Recombinant Human IL-1b [4]): 0.00056 s⁻¹ | kon (Recombinant Human IL-1b [4]): 4e+06 M⁻¹ s⁻¹

B5: DVD3415 (bispecific antibody, human IgG1)
heavy: EVQLVESGGGVVQPGRSLRLSCSASGFIFSRYDMSWVRQAPGKGLEWVAYISHGGAGTYYPDSVKGRFTISRDNSKNTLFLQMDSLRPEDTGVYFCARGGVTKGYFDVWGQGTPVTVSSGGGGSGGGGSEVQLVQSGAEVKKPGSSVKVSCKASGGSFGGYGIGWVRQAPGQGLEWMGGITPFFGFADYAQKFQGRVTITADESTTTAYMELSGLTSDDTAVYYCARDPNEFWGGYYSTHDFDSWGQGTTVTVSSASTKGPSVFPLAPSSKSTSGGTAALGCLVKDYFPEPVTVSWNSGALTSGVHTFPAVLQSSGLYSLSSVVTVPSSSLGTQTYICNVNHKPSNTKVDKKVEPKSCDKTHTCPPCPAPEAAGGPSVFLPPPKPKDTLMISRTPEVTCVVVDVSHEDPEVKFNWYVDGVEVHNAKTKPREEQYNSTYRVVSVLTVLHQDWLNGKEYKCKVSNKALPAPIEKTISKAKGQPREPQVYTLPPSREEMTKNQVSLTCLVKGFYPSDIAVEWESNGQPENNYKTTPPVLDSDGSFFLYSKLTVDKSRWQQGNVFSCSVMHEALHNHYTQKSLSLSPGK
light: DIQMTQSPSSLSASVGDRVTITCRASGNIHNYLTWYQQTPGKAPKLLIYNAKTLADGVPSRFSGSGSGTDYTFTISSLQPEDIATYYCQHFWSIPYTFGQGTKLQITRGGSGGGGSGEIVLTQSPDFQSVTPKEKVTITCRASQDIGSELHWYQQKPDQPPKLLIKYASHSTSGVPSRFSGSGSGTDFTLTINGLEAEDAGTYYCHQTDSLPYTFGPGTKVDIKRTVAAPSVFIFPPSDEQLKSGTASVVCLLNNFYPREAKVQWKVDNALQSGNSQESVTEQDSKDSTYSLSSTLTLSKADYEKHKVYACEVTHQGLSSPVTKSFNRGEC
notes: human kappa; also called DVD3415H; DVD3415L
N-Terminal VD IL-1β Neutralization Assay (IC50 nM) (Recombinant Human IL-1b [3]): 0.027 nM | C-Terminal VD IL17 Neutralization Assay (IC50 nM) (Recombinant Human IL-17 [1]): 0.091 nM | Kd (Recombinant Human IL-1b [5]): 51 pM | koff (Recombinant Human IL-1b [5]): 3.8e-05 s⁻¹ | kon (Recombinant Human IL-1b [5]): 740000 M⁻¹ s⁻¹ | Kd (Recombinant Human IL-17 [6]): < 4.8 pM | koff (Recombinant Human IL-17 [6]): < 1e-06 s⁻¹ | kon (Recombinant Human IL-17 [6]): 210000 M⁻¹ s⁻¹

B6: DVD3418 (bispecific antibody, human IgG1)
heavy: EVQLVESGGGVVQPGRSLRLSCSASGFIFSRYDMSWVRQAPGKGLEWVAYISHGGAGTYYPDSVKGRFTISRDNSKNTLFLQMDSLRAEDTAVYYCARGGVYKGYFDVWGQGTPVTVSSGGGGSGGGGSEVQLVQSGAEVKKPGSSVKVSCKASGGSFGGYGIGWVRQAPGQGLEWMGGITPFFGFADYAQKFQGRVTITADESTTTAYMELSGLTSDDTAVYYCARDPNEFWGGYYSTHDFDSWGQGTTVTVSSASTKGPSVFPLAPSSKSTSGGTAALGCLVKDYFPEPVTVSWNSGALTSGVHTFPAVLQSSGLYSLSSVVTVPSSSLGTQTYICNVNHKPSNTKVDKKVEPKSCDKTHTCPPCPAPEAAGGPSVFLPPPKPKDTLMISRTPEVTCVVVDVSHEDPEVKFNWYVDGVEVHNAKTKPREEQYNSTYRVVSVLTVLHQDWLNGKEYKCKVSNKALPAPIEKTISKAKGQPREPQVYTLPPSREEMTKNQVSLTCLVKGFYPSDIAVEWESNGQPENNYKTTPPVLDSDGSFFLYSKLTVDKSRWQQGNVFSCSVMHEALHNHYTQKSLSLSPGK
light: DIQMTQSPSSLSASVGDRVTITCRASGNIHNYLTWYQQTPGKAPKLLIYNAKTLADGVPSRFSGSGSGTDYTFTISSLQPEDIATYYCQHFWSIPYTFGQGTKLQITRGGSGGGGSGEIVLTQSPDFQSVTPKEKVTITCRASQDIGSELHWYQQKPDQPPKLLIKYASHSTSGVPSRFSGSGSGTDFTLTINGLEAEDAGTYYCHQTDSLPYTFGPGTKVDIKRTVAAPSVFIFPPSDEQLKSGTASVVCLLNNFYPREAKVQWKVDNALQSGNSQESVTEQDSKDSTYSLSSTLTLSKADYEKHKVYACEVTHQGLSSPVTKSFNRGEC
notes: human kappa; also called DVD3418H; DVD3418L
N-Terminal VD IL-1β Neutralization Assay (IC50 nM) (Recombinant Human IL-1b [3]): 0.018 nM | C-Terminal VD IL17 Neutralization Assay (IC50 nM) (Recombinant Human IL-17 [1]): 0.068 nM | Kd (Recombinant Human IL-1b [5]): 34 pM | koff (Recombinant Human IL-1b [5]): 1.8e-05 s⁻¹ | kon (Recombinant Human IL-1b [5]): 540000 M⁻¹ s⁻¹ | Kd (Recombinant Human IL-17 [6]): < 4.8 pM | koff (Recombinant Human IL-17 [6]): < 1e-06 s⁻¹ | kon (Recombinant Human IL-17 [6]): 210000 M⁻¹ s⁻¹

B7: AB420 (antibody, V domains shown)
VH: EVQLVQSGAEVKKPGSSVKVSCKASGGSFGGYGIGWVRQAPGQGLEWMGGITPFFGFADYAQKFQGRVTITADESTTTAYMELSGLTSDDTAVYYCARDPNEFWGGYYSTHDFDSWGQGTTVTVSS
VL: EIVLTQSPDFQSVTPKEKVTITCRASQDIGSELHWYQQKPDQPPKLLIKYASHSTSGVPSRFSGSGSGTDFTLTINGLEAEDAGTYYCHQTDSLPYTFGPGTKVDIKR
C-Terminal VD IL17 Neutralization Assay (IC50 nM) (Recombinant Human IL-17 [1]): 0.048 nM

B8: AB461 (antibody, V domains shown)
VH: EVQLVQSGAEVKKPGESVKISCKASGGSFRSYGISWVRQAPGQGLEWMGGITHFFGITDYAQKFQGRVTITADESTTTAYMELSGLTSDDTAVYYCAREPNDFWGGYYDTHDFDSWGQGTTVTVSS
VL: EIVLTQSPDFQSVTPKEKVTITCRASQNIGSELHWYQQKPDQSPKLLIKYASHSISGVPSRFSGSGSGTDFTLTINGLEAEDAATYYCHQSDTLPHTFGQGTKVDIKR
notes: Parent anti-IL-17 antibody; also called AB461VH
Kd (Recombinant Human IL-17 [2]): 0.86 pM | koff (Recombinant Human IL-17 [2]): 5.3e-06 s⁻¹ | kon (Recombinant Human IL-17 [2]): 6.2e+06 M⁻¹ s⁻¹
